# Measurements taken from the nanobody polyreactivity screen of Harvey et al. (2022).
# Assay: yeast display, Sf9 membrane polyspecificity reagent, FACS + sequencing; frameworks hold sequencing errors
# Method in brief: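 Genes from sorted yeast were amplified by colony PCR, read by MiSeq 2 × 250 sequencing and filtered on CDR length. These cells carried a synthetic nanobody library in Saccharomyces cerevisiae BJ5465 and were sorted by FACS into low and high (top ~1%) gates on anti-HA and streptavidin fluorescence. Polyreactivity is labelled according to the gate of origin.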
row,Sequence,polyreactivity (PSR sort gate)
1,QVQLVESGGGLVQAGGSLRLSCAASGRTFGRYAMGWYRQAPGKAREFVAAISSSGGSTSYADSVKGRFTISRDNAKNTVYLQMNSLKPEDTAVYYCNADAYRITRYGYDYWGQGTQVTVSS,high polyreactivity
2,QVQLVESGGGLVQAGGSLRLSCAASGRTFGRYAMGWYRQAPGKERDLVATITSGGSTNYADSVKGRFTISRDNAKNTVYLQMNSLKPVDTAVYYCAAEFSPSRWAYSEGALRYNYWGHGTQVTVSS,low polyreactivity
3,QVQLVESGGGLVQAGGSLRLSCAASGRTFGRYAMGWYRQAPGKERELVAAINRGGSTKYADSVKGRFTISRDNAKNTVYLQMNSLKPEDTAVYYCAKDRHPALHYDYWGQGTQVTVSS,low polyreactivity
4,QVQLVESGGGLVQAGGSLRLSCAASGRTFGRYAMGWYRQAPGKERELVAAITRGGGSTYYADSVKGRFTISRDNAKYTVYLQMNSLKPEDTAVYYCAARNFRSPYGYDYWGQGTQVTVSS,high polyreactivity
5,QVQLVESGGGLVQAGGSLRLSCAASGRTFGRYTMGWYIQAPGKERELGASISNTARTNYADSVKGRFTISRDNAKNTVYLQMNSLKPEDTAVYYCAAGFVRYRGTRDYWGQGTQVTVSS,low polyreactivity
6,QVQLVESGGGLVQAGGSLRLSCAASGRTFGRYTMGWYRQAPGKERELVADITSGWSTYADSVKGRFTISRDNAKNSVYLQMNSLKPEDTAVYYCNADRTYPEPAEYYYWGQGTQVTVSS,low polyreactivity
7,QVQLVESGGGLVQAGGSLRLSCAASGRTFGSNAMGWYRQAPGKERELVAAITRRGGSTYYADSVKGRFTISRDNAMNTVYLQMNSLKPEDTAVYYCATDPVSTRGSDYWGQGTQVTVSS,low polyreactivity
8,QVQLVESGGGLVQAGGSLRLSCAASGRTFGSNAMGWYRQAPGKERELVAVITTSGGSTYYADSVKGRFTISRDNAKNTVYLQMNSLKPEDTAVYYCNKVGWYHNYYYWGQGTQVTVSS,high polyreactivity
9,QVQLVESGGGLVQAGGSLRLSCAASGRTFGSYAMGWYRQAPGKERELVAAISKGGGSTYYADSVKGRFTISRDNAKNTVYLQMNSLKPEDTAVYYCAKRRFEYYYYWGQGTQVTVSS,high polyreactivity
10,QVQLVESGGGLVQAGGSLRLSCAASGRTFGTKTMGWYRQAPGKERELVAGISRSGGRTYYADSVKGRFTISRDNAKNTVYLQMNSLKPEDTAVYYCAAVSYYQPLRRIMDYWGQGTQVTVSS,high polyreactivity
11,QVQLVESGGGLVQAGGSLRLSCAASGRTFGTNAMGWYRQAPGKERELVAAISRRGGSTYYADSVKGRFTISRDNAKNTVYLQMNSLKPEDTAVYYCNVVTKFTGRGYDYWGQGTQVTVSS,high polyreactivity
12,QVQLVESGGGLVQAGGSLRLSCAASGRTFGTYAIVWYRPAPGKERELVAAITRRGGSTYYADSVKGRFTISRDNAKNTVYLQMNSLKPEDTAVYYCAARWFRYVPYSFPYLYKYDYWGQGTQVTVSS,low polyreactivity
13,QVQLVESGGGLVQAGGSLRLSCAASGRTFGTYAMGWYRQAPGKERELVAAISRRGGTTYYADSVKGRFTISRDNAKNTVYLQMNSLKPEDTAVYYCARASWSITTVLSTMDYWGQGTQVTVSS,high polyreactivity
14,QVQLVESGGGLVQAGGSLRLSCAASGRTFGTYAMGWYRQAPGKERELVAAISRRGGTTYYADSVKGRFTISRDNAKNTVYLQMNSLKPEDTAVYYCNVYRVSFSVVPLGYWGQGTQVTVSS,high polyreactivity
15,QVQLVESGGGLVQAGGSLRLSCAASGRTFGTYAMGWYRQAPGKERELVASITSGDSTNYADSVKGRFTISRDNAKNTVYLQMNSLKPEDTAVYYCNADIEFYVLFAYWGQGTQVTVSS,low polyreactivity
16,QVQLVESGGGLVQAGGSLRLSCAASGRTFGVNAMGWYRQAPGKERELVAAISYSGASTFYADSVKGRFTISRDNAKNTVYLQMNSLKPEDTAVYYCDARGYYGGFYYWGQGTQVTVSS,high polyreactivity

row,Sequence,polyreactivity (PSR sort gate)
1,QVQLVESGGGLVQAGGSLRLSCAASGRTFGVYMGWYRQAPGKERELVAVISSGDSTNYADSVKGRFTISRDNAKNTVYLQMNSLKPEDTAVYYCNAYGSDRLTLDDYWGQGTQVSVSS,low polyreactivity
2,QVQLVESGGGLVQAGGSLRLSCAASGRTFGVYVMGWYRHAPGKERELVAFITISGGSTNYADSVKGRFTISRDNAKNTVYLQMNSLKPDDTAVYYCAARTYYGYDYWGQGNQVTVSS,high polyreactivity
3,QVQLVESGGGLVQAGGSLRLSCAASGRTFGWNGMGWYRQAPGKERELVAVISSGGSTKYADSVKGRFTISRDNAKNTVYLQMNSLKPEDTAVYYCAKDWVRSGRRKMDYWGQGTQVTVSS,low polyreactivity
4,QVQLVESGGGLVQAGGSLRLSCAASGRTFGWYAMGWYRQAPGKERELVAAINNSGDITYYADSVKGRFTISRDNAKNTVYVQMNSLKPEDTAVYYCAATAGYYGYPSEYDYWGQGTQVTVSS,low polyreactivity
5,QVQLVESGGGLVQAGGSLRLSCAASGRTFGWYSMGWYRQAPGKERELVAAINNSVDITYYSDSVKGRFTISRDNAKNSVYLQMNSLKPEDTAVYYCNRDARSGFVTIYATDYDYWGQGTQVTVSS,low polyreactivity
6,QVQLVESGGGLVQAGGSLRLSCAASGRTFGYNAMGWYRQAPGKERELVAAISRGDSTNYADSVKGRFTISRDNAKNTVYLQMNSLKPEDTAVYYCAAAFPRYRSRAIRVDYWGQGTQVTVSS,high polyreactivity
7,QVQLVESGGGLVQAGGSLRLSCAASGRTFGYNAMGWYRQAPGKERELVAAITWSGGSTYYADSVKGRFTISRDNAKNTVYLQMNSLKPEDTAVYYCNAYQRLSRAYGYWGQGTQVTVSS,high polyreactivity
8,QVQLVESGGGLVQAGGSLRLSCAASGRTFGYNGKGWYRQAPGKERELVAAINSGGNTNYAESVKGRFTISRDNAKNTVYLQMNSLKPEDTAVYYCAKYGTLYEPVPNEYDNWGQGTQVTVSS,low polyreactivity
9,QVQLVESGGGLVQAGGSLRLSCAASGRTFGYYAMGGYRQAPGKERELVAGIRSSGGSTYYADSVKGRFTISRDHAKNTVYLKMNSLIPEDTAVYYCAARLRSYHYRYGYDYWGQGTQVTVSS,high polyreactivity
10,QVQLVESGGGLVQAGGSLRLSCAASGRTFGYYAMGWYIQAPGKERELVAAISGSGGSTYYADSVKGRFTISRDNAKNTVYLQMNSLKPEDTEVYYCAARYIYYYAFGYNYWGQGTQVTVSS,high polyreactivity
11,QVQLVESGGGLVQAGGSLRLSCAASGRTFGYYAMGWYRQAPGKERELVAAISKSGGRTYYADSVKGRFTISRDNAKNTVYLQMNSLKPEDTAVYYCAADGGAIVPYYENYYWGQGTQVTVSS,high polyreactivity
12,QVQLVESGGGLVQAGGSLRLSCAASGRTFGYYAMGWYRQAPGKERELVASISSSGGNTYYADSVKGRFTISRDNAKNTVYLQMNSLKPEDTAVYYCAATYGWWPRDYYYWGQGTQVTVSS,high polyreactivity
13,QVQLVESGGGLVQAGGSLRLSCAASGRTFGYYAMGWYRQAPGKERELVATITSRGGDTSYADSVKGRFTISRDNAKNTVYLQMKSLKPEDTAVYYCAADRFQGRDDYWGQGTQVTVSS,high polyreactivity
14,QVQLVESGGGLVQAGGSLRLSCAASGRTFGYYAMGWYRQAPGKERELVATITWSGGSTYYADSVKGRFTISRDNAKNTVYLQMNSLKPEDTAVYYCATGQYGYWYGTENDYWGQGTQVTVSS,low polyreactivity
15,QVQLVESGGGLVQAGGSLRLSCAASGRTFGYYAMGWYRQAPGNERELVASISQSGGRTYYADSVKGRFTISRDNAKNTVYLQMNSLKPVDTAVYLCNAVYYRRTGYEYWGQGSQVTVSS,high polyreactivity
16,QVQLVESGGGLVQAGGSLRLSCAASGRTFGYYARGWYRQAPGKERELVADISSGGSTSYADSVKGRFTISRDNAKNTVYLQMNSLKPEDTAVYYCAADSHQNFSGWLRWPRMDYWGQGSQVTVSS,low polyreactivity
